Patent US20230203134A1 (TRUSTEES OF COLUMBIA UNIVERSITY IN THE CITY OF NEW YORK, published 2023)

B1: monoclonal antibody 2-43 (antibody, V domains shown)
VH: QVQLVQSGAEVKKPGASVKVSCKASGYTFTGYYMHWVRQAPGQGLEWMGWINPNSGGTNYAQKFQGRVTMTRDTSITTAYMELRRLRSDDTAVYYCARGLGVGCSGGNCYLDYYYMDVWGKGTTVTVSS
VL: QSALTQPASVSGSPGQSITISCTGTSSDVGGYNYVSWYQQHPGKAPKLMIYDVSKRPSGVSNRFSGSKSGNTASLTISGLQAEDEGDYYCSSYTSSSTWVFGGGTKLTVL
notes: also called mAb 2-43; monoclonal Ab 2-43
B2: monoclonal antibody 2-51 (antibody, V domains shown)
VH: QVQLVQSGAEVKKPGASVKVSCKVSGYTLIELSMHWVRQAPGKGLEWMGGFDPEDVETIYAQQFQGRVTMTEDTSTDTAYMELSSLRSEDTAVYYCATGWAYKSTWYFGYWGQGTLVTVSS
VL: QSALTQPPSASGSPGQSVTISCTGTSSDVGGYNYVSWYQQHPGKAPKLMIYEVSKRPSGVPDRFSGSKSGNTASLTVSGLQAEDEADYYCSSYAGSRMGFGGGTKLTVL
notes: also called mAb 2-51; antibody number 2-51
B3: monoclonal antibody 4-20 (antibody, V domains shown)
VH: QVQLLQSGAEVKKPGASVKVSCKASGYSFTSYYMHWVRQAPGQGLEWMGIINPSGGGTTYAQKFQGRVTMTRDTSTSTVYMELSSLRSEDTAVYYCARPGGGSYQEFDYWGQGTLVTVSS
VL: DIQMTQSPSSLSASVGDRVTITCRASQSISSYLNWYQQKPGKAPKLLISAASSLQSGVPSRFSGSGSGTDFTLTISSLQPEDFATYYCQQSYNTLQVTFGGGTKVEIK
notes: also called mAb 4-20; antibody number 4-20
B4: monoclonal antibody 2-30 (antibody, V domains shown)
VH: QVQLVESGGGVVQPGRSLRLSCAASGFTFSSYTMHWVRQAPGKGLEWVAAISYDGNNKYYADSVKGRFTISRDNSKNTLYLQMNSLRAEDTAVYYCARSILYGGGMDVWGQGTTVTVSS
VL: DIQLTQSPSSLSASVGDRVTITCRASQGISSYLAWYQQKPGQAPKLLIYAASTLQSGVPSRFSGSGSGTDFTLTISSLQPEDFATYYCQQLNSYPLTFGGGTKVEIK
notes: also called mAb 2-30; antibody number 2-30
B5: monoclonal antibody 4-18 (antibody, V domains shown)
VH: QVQLVESGGGVVQPGRSLRLSCAASGFTFSSYGMHWVRQAPGKGLEWVAVISYDGSNKHYADSVKGRFTISRDNSKNTLYLQMNSLRAEDTAVYYCAKDSGYNYGYSWFDPWGQGTLVTVSS
VL: SYELTQPPSVSVSPGQTARITCSADALAKQYAYWYQQKPGQAPVLVIYKDSERPSGIPERFSGSSSGTTVTLTISGVQAEDEADYYCQSTDNSGTYPNWVFGGGTKLTVL
notes: also called mAb 4-18; antibody number 4-18
B6: monoclonal antibody 5-7 (antibody, V domains shown)
VH: QVQLVQSGAEVKKPGASVKVSCKASGYTFTSYYMHWVRQAPGQGLEWMGVINPSGGSTSYAEKFRGRVTMTRDTSTSTVYMELSSLRSEDTAVYYCARDREPHSDSSGYWDSLKYYYYYALDVWGQGTTVTVSS
VL: AIQLTQSPSSLSASVGDRVTITCRASQGISSYLAWYQQKPGKAPELLIYAASTLQSGVPSRFSGSGSGTDFTLTISSLQPEDFATYYCQQLNTYPFTFGPGTKVDIK
notes: also called mAb 5-7; antibody number 5-7
B7: monoclonal antibody 1-68 (antibody, V domains shown)
VH: QVQLVQSGAEVKKPGASVKVSCKVSGYTLIELSMHWVRQAPGKGLEWMGGFDPEDAETIYAQKFQGRVTMTEDTSTDTAYMELSSLRSEDTAVYYCATGWAVAGSSDVWYYYYGMDVWGQGTTVTVSS
VL: QSALTQPPSVSGSPGQSVTISCTGTSSDVGSYNRVSWYQQPPGTAPKLMIYEVSNRPSGVPDRFSGSKSGNTASLTISGLQAEDEADYYCSSYTSSSTYVFGTGTKVTVL
notes: also called mAb 1-68; antibody number 1-68
B8: monoclonal antibody 2-15 (antibody, V domains shown)
VH: QVQLVQSGAEVKKPGASVRVSCKASGYTFTGYYMHWVRQAPGQGLEWMGWINPISDGTNYAQKFQGWVTMTRDTSISTVYMELSRLRSDDTAVYYCARGGSRCSGGNCYGWAYDAFDIWGQGTMITVSS
VL: QSALTQPASVSGSPGQSITISCTGTSSDVGGYNFVSWYQQHPGKAPKLMIYDVSKRPSGVSNRFSGSKSGNTASLTISGLQAEDEADCYCSSYTSSSTFVFGTGTKVTVL
notes: also called mAb 2-15; antibody number 2-15
B9: monoclonal antibody 2-7 (antibody, V domains shown)
VH: QITLKESGPTLVKPTQTLTLTCTFSGFSLSTSGVGVGWIRQPPGKALEWLALIYWDDDKRYSPSLKSRLTITKDTSKNQVVLTMTNMDPVDTATYYCAHHKIERIFDYWGQGTLVTVSS
VL: QSALAQPASVSGSPGQSITISCTGTSSDVGAYNYVSWYQQHPGKAPKLMIYDVSKRPSGVSNRFSGSKSGNTASLTISGLQAEDEADYYCSSYTTSSTVFGGGTKLTVL
notes: also called mAb 2-7; antibody number 2-7
B10: monoclonal antibody 2-4 (antibody, V domains shown)
VH: QVQLVQSGAEVKKPGASVKVSCKASGYTFTGYYMHWVRQAPGQGLEWMGWINPNSGGTNYTQMFQGRVTMTRDTSISTAYMEVSRLRSDDTAVYYCARDRSWAVVYYYMDVWGKGTTVTVSS
VL: QSALTQPPSASGSPGQSVTISCTGTSSDVGGYNYVSWYQQHPGKAPKLMIYEVSKRPSGVPDRFSGSKSGNTASLTVSGLQAEDEADYYCSSYAGSNNLVFGGGTKLTVL
notes: also called mAb 2-4; antibody number 2-4
B11: monoclonal antibody 2-38 (antibody, V domains shown)
VH: EVQLVESGGGLVKPGGSLRLSCAASGFTFSSYSMNWVRQAPGKGLEWVSSISSSSSYIYYADSVKGRFTISRDNAKNSLYLQMNSLRAEDTAVYYCTRAGWELRLDAFDIWGQGTMVTVSS
VL: SSELTQDPAVSVALGQTVRITCQGDSLRSSYASWYQQKPGQAPILVIYDKNNRPSGIPDRFSGSSSGNTASLTITGAQAEDEADYYCNSRDSSGILFGGGTKLTVL
notes: also called mAb 2-38; antibody number 2-38
B12: monoclonal antibody 1-20 (antibody, V domains shown)
VH: EVQLVESGGGLIQPGGSLRLSCAASGLTVSSNYMSWVRQAPGKGLEWVSVIYSGGSTFYADSVKGRFTISRDNSKNTLYLQMNSLRAEDTAVYYCARDLFYYGMDVWGQGTTVTVSS
VL: DIQLTQSPSFLSASVGDRVTITCRASQGISSYLAWYQQKPGKAPKLLIYAASTLQSGVPSRFSGSGSGTEFTLTISSLQPEDFATYYCQQLNSYPCFGPGTKVDIK
notes: also called mAb 1-20; antibody number 1-20
B13: monoclonal antibody 2-17 (antibody, V domains shown)
VH: QVQLVQSGAEVKKPGSSVKVSCKASGGTFSSYAISWVRQAPGQGLEWMGGNIPIFGTANYAQKFQGRVTITADESTSTAYMELSSLRSEDTAVYYCARGVGYRGVIPLNWFDPWGQGTVVTVSS
VL: EIVMTQSPATLSVSPGERATLSCRASQSVSSDLAWYQHKPGQAPRLLIYGASTRATGIPVRFSGSGSGTEFTLTISSLQSEDFAVYYCQQYNNWPPFTFGGGTKVEIK
notes: also called mAb 2-17; antibody number 2-17
B14: monoclonal antibody 1-87 (antibody, V domains shown)
VH: QVQLVQSGAEVKKPGASVKVSCKVSGYTLIELSMHWVRQAPGKGLEWMGGFDPEDAETIYAQKFQGRVTMTEDTSTDTAYMELSSLRSEDTAVYYCATGIAVIGPPPSTYYYYGMDVWGQGTTVTVSS
VL: QSALTQPASVSGSPGQSITISCTGTSSDVGGYNYVSWYQQHPGKAPKLMIYDVSKRPSGVSNRFSGSKSGNTASLTISGLQAEDEADYYCSSYTSSSTYVFGTGTKVTVL
notes: also called mAb 1-87; antibody number 1-87

Target: T1, SARS-CoV-2 N-terminal domain (NTD) (SARS-CoV-2, UniProt P0DTC2 14-290)
T1 construct: range 1-290
Test: ELISA

**Q.** Does B1 bind?
**A.** no binding

**Q.** Does B2 bind?
**A.** no binding

**Q.** Does B3 bind?
**A.** no binding

**Q.** Does B4 bind?
**A.** no binding

Target: T1, SARS-CoV-2 N-terminal domain (NTD)
Test: ELISA (FIG. 10D-F)

**Q.** Does B5 bind?
**A.** binds

**Q.** Does B6 bind?
**A.** binds

**Q.** Does B7 bind?
**A.** binds

Target: T1, SARS-CoV-2 N-terminal domain (NTD)
Test: quantitative ELISA

**Q.** Does B8 bind?
**A.** no binding

**Q.** Does B9 bind?
**A.** no binding

**Q.** Does B10 bind?
**A.** no binding

**Q.** Does B11 bind?
**A.** no binding

**Q.** Does B12 bind?
**A.** no binding

Target: T1, SARS-CoV-2 N-terminal domain (NTD)
Test: quantitative ELISA (FIG. 16C, F, I)

**Q.** Does B13 bind?
**A.** binds

**Q.** Does B14 bind?
**A.** binds
